From patent publication US20070244048A1 (published 2007)
No end group written: not given here. *: point of attachment. (PEG)2 40 kDa = branched PEG of 40 kDa linked via the Cys side-chain thiol (code C2 = Cys(PEG)2 40 kDa); Cholesteroyl = cholesterol linked to a cysteine residue via the side-chain thiol; Succinimide(1-Et,3-yl) = CCN1C(=O)CC(*)C1=O

Tests used:
Experiment in all cases: cell-based or functional assay
[1] = target: mouse NMUR2 (mouse, UniProt Q8BZ39 1-395)
[2] = target: human NMUR2 (human, UniProt Q9GZQ4 1-415)
human NMUR2, sequence (Q9GZQ4 whole entry): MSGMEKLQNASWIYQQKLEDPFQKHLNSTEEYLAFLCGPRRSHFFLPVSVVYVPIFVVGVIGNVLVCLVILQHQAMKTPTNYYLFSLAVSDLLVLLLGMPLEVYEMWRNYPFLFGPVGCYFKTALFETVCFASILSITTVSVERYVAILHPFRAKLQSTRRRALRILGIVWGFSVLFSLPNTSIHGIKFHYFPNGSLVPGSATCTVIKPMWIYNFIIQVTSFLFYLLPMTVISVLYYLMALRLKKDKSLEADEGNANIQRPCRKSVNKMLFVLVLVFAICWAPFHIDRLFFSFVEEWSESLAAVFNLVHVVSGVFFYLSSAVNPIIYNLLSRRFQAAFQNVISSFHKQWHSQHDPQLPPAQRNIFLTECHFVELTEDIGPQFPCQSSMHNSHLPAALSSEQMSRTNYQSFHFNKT

[3] = target: T1, human NMUR1 (human, UniProt Q9HB89 1-426)
T1 sequence (looked up): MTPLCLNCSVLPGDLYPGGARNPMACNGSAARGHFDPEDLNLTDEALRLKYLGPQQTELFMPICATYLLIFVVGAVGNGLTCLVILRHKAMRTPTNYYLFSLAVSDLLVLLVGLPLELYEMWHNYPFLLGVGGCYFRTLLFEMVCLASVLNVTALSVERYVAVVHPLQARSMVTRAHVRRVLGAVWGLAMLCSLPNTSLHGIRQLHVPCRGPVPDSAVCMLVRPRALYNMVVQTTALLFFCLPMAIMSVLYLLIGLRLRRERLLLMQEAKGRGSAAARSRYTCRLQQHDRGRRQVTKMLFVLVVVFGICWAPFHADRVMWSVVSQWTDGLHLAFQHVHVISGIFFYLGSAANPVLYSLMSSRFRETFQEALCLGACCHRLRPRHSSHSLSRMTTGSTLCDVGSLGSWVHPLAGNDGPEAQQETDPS

[4] = target: rat NMUR2 (rat, UniProt Q9ESQ4 1-395)
rat NMUR2, sequence (Q9ESQ4 whole entry): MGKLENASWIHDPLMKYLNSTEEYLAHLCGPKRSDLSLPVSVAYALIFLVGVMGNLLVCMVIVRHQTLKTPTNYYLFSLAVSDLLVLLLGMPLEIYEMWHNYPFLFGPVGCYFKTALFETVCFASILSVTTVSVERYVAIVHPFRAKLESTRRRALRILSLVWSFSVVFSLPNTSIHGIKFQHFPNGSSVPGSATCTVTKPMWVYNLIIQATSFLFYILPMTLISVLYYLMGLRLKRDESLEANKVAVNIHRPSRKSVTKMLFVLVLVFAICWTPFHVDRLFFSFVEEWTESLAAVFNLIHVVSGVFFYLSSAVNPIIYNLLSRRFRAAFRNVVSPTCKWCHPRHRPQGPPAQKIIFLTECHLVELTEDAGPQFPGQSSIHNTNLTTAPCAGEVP

[5] = target: T2, rat NMUR1-ATG (rat, UniProt Q9JJI5 1-425)
T2 sequence (looked up): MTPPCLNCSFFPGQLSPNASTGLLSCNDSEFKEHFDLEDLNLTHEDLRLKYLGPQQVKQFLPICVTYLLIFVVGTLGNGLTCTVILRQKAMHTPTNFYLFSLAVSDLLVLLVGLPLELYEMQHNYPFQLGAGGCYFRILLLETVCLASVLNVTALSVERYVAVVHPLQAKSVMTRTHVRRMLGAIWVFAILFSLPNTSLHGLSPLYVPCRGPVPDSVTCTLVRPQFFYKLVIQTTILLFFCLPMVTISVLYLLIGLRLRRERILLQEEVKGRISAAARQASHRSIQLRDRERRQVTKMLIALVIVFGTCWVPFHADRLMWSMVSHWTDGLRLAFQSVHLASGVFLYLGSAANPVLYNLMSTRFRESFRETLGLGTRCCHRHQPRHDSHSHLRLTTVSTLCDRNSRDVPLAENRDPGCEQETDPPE

[6] = target: T3, mouse NMUR1-ATG (mouse, UniProt O55040 1-428)
T3 sequence (looked up): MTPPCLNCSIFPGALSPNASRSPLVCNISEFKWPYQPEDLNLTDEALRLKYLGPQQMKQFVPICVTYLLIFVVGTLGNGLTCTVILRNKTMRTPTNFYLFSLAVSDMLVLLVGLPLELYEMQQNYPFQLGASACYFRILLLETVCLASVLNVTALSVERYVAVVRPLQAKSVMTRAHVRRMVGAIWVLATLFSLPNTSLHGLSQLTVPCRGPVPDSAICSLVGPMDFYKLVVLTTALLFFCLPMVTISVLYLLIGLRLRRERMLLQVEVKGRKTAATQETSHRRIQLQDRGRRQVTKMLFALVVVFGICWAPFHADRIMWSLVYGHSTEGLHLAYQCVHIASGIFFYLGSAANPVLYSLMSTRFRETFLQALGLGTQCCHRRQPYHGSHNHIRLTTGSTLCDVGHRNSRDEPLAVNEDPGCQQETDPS

[7] = target: T4, mouse NMUR1-CTG (mouse, UniProt O55040 1-428)
T4 sequence (looked up): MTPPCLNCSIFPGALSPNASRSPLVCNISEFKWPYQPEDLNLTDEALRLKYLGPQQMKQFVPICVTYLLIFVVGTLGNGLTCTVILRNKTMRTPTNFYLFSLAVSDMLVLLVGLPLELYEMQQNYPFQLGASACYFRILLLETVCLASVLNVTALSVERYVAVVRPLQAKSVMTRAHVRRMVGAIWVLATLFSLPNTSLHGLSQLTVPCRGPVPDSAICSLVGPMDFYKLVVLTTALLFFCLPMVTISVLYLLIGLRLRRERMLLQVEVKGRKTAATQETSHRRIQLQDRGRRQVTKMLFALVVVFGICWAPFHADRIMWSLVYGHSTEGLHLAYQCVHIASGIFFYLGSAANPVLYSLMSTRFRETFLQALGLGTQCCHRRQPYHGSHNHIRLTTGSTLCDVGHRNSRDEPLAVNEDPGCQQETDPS

mouse NMUR2, sequence (Q8BZ39 whole entry): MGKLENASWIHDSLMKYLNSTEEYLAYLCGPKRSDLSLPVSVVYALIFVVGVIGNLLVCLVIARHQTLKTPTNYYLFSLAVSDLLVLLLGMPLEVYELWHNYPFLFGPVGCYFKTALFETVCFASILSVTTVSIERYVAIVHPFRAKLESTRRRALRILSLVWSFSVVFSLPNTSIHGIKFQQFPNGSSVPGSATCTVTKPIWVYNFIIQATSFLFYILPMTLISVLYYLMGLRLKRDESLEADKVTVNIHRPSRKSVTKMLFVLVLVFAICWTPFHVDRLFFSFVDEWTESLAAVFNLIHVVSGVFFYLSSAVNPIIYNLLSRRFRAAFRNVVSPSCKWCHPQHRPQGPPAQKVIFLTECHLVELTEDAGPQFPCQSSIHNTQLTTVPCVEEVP

## FRVDEEFQSPFASQSRGYFLFRPRN-NH2 (not fully specified (N-terminus)) [NMU1]
[1]
  % Activity (FLIPR): 95.7%
  EC50 (FLIPR): 31 nM
[2]
  % Activity (FLIPR): 85%
  EC50 (FLIPR): 64.8 nM
[3]
  % Activity (FLIPR): 83.7%
  EC50 (FLIPR): 81.4 nM
[4]
  % Activity (FLIPR): 87.1%
  EC50 (FLIPR): 71.7 nM
[5]
  % Activity (FLIPR): 59.3%
  EC50 (FLIPR): 718 nM

## Ac-C(Cholesteroyl)GYFLFRPRN-NH2 [NMU11]
[6]
  % Activity (FLIPR): 81.3%
  EC50 (FLIPR): 1000 nM
[7]
  % Activity (FLIPR): 65%
  EC50 (FLIPR): 600 nM
[1]
  % Activity (FLIPR): 70.5%
  EC50 (FLIPR): 1000 nM
[2]
  % Activity (FLIPR): 37.3%
  EC50 (FLIPR): 1000 nM
[3]
  % Activity (FLIPR): 20.6%
  EC50 (FLIPR): 1000 nM
[4]
  % Activity (FLIPR): 33.2%
  EC50 (FLIPR): 1000 nM
[5]
  % Activity (FLIPR): 50.9%
  EC50 (FLIPR): 316 nM

B1: NMU6 (peptide)
peptide: Ac-C(Succinimide(1-Et,3-yl))GYFLFRPRN-NH2
SMILES: CCN1C(=O)CC(SC[C@H](NC(C)=O)C(=O)NCC(=O)N[C@@H](Cc2ccc(O)cc2)C(=O)N[C@@H](Cc2ccccc2)C(=O)N[C@@H](CC(C)C)C(=O)N[C@@H](Cc2ccccc2)C(=O)N[C@@H](CCCNC(=N)N)C(=O)N2CCC[C@H]2C(=O)N[C@@H](CCCNC(=N)N)C(=O)N[C@@H](CC(N)=O)C(N)=O)C1=O
[6]
  % Activity (FLIPR): 100%
  EC50 (FLIPR): 1 nM
[7]
  % Activity (FLIPR): 100%
  EC50 (FLIPR): 2 nM
[1]
  % Activity (FLIPR): 100%
  EC50 (FLIPR): 0.7 nM
[2]
  % Activity (FLIPR): 100%
  EC50 (FLIPR): 1.5 nM
[3]
  % Activity (FLIPR): 96.7%
  EC50 (FLIPR): 3.5 nM
[4]
  % Activity (FLIPR): 100%
  EC50 (FLIPR): 1.5 nM
[5]
  % Activity (FLIPR): 100%
  EC50 (FLIPR): 1 nM

## Ac-FRVDEEFQSPFASQSRPYFLFRPRN-NH2 [NMU5]
[6]
  % Activity (FLIPR): 100%
  EC50 (FLIPR): 3.3 nM
[7]
  % Activity (FLIPR): 100%
  EC50 (FLIPR): 11.9 nM
[1]
  % Activity (FLIPR): 100%
  EC50 (FLIPR): 1 nM
[2]
  % Activity (FLIPR): 98.1%
  EC50 (FLIPR): 2.5 nM
[3]
  % Activity (FLIPR): 98.1%
  EC50 (FLIPR): 6.1 nM
[4]
  % Activity (FLIPR): 100%
  EC50 (FLIPR): 2.3 nM
[5]
  % Activity (FLIPR): 100%
  EC50 (FLIPR): 3.6 nM

## Ac-C((PEG)2 40 kDa)FRVDEEFQSPFASQSRGYFLFRPRN-NH2 [NMU9]
[6]
  % Activity (FLIPR): 95%
  EC50 (FLIPR): 45.7 nM
[7]
  % Activity (FLIPR): 71.7%
  EC50 (FLIPR): 1000 nM
[1]
  % Activity (FLIPR): 100%
  EC50 (FLIPR): 19 nM
[2]
  % Activity (FLIPR): 94.3%
  EC50 (FLIPR): 91.1 nM
[3]
  % Activity (FLIPR): 94.4%
  EC50 (FLIPR): 50.6 nM
[4]
  % Activity (FLIPR): 100%
  EC50 (FLIPR): 4.5 nM
[5]
  % Activity (FLIPR): 100%
  EC50 (FLIPR): 9.7 nM

## Ac-FRVDEEFQSPFASQSRGYFLFRPRN-NH2 [NMU2]
[6]
  % Activity (FLIPR): 100%
  EC50 (FLIPR): 2.1 nM
[7]
  % Activity (FLIPR): 100%
  EC50 (FLIPR): 8.3 nM
[1]
  % Activity (FLIPR): 100%
  EC50 (FLIPR): 1.2 nM
[2]
  % Activity (FLIPR): 97.4%
  EC50 (FLIPR): 2.6 nM
[3]
  % Activity (FLIPR): 99%
  EC50 (FLIPR): 5.5 nM
[4]
  % Activity (FLIPR): 100%
  EC50 (FLIPR): 2.2 nM
[5]
  % Activity (FLIPR): 89.2%
  EC50 (FLIPR): 3.3 nM

## Ac-C((PEG)2 40 kDa)GYFLFRPRN-NH2 [NMU7]
[2]
  % Activity (FLIPR): 91.8%
  EC50 (FLIPR): 36.1 nM
[3]
  % Activity (FLIPR): 91.4%
  EC50 (FLIPR): 79.6 nM

## GYFLFRPRN-NH2 [NMU3]
[6]
  % Activity (FLIPR): 100%
  EC50 (FLIPR): 2.9 nM
[7]
  % Activity (FLIPR): 100%
  EC50 (FLIPR): 4.7 nM
[1]
  % Activity (FLIPR): 100%
  EC50 (FLIPR): 1 nM
[2]
  % Activity (FLIPR): 100%
  EC50 (FLIPR): 1.9 nM
[3]
  % Activity (FLIPR): 98.9%
  EC50 (FLIPR): 5.6 nM
[4]
  % Activity (FLIPR): 100%
  EC50 (FLIPR): 1.8 nM
[5]
  % Activity (FLIPR): 100%
  EC50 (FLIPR): 0.7 nM

## FRVDEEFQSPFASQSRPYFLFRPRN-NH2 [NMU4]
[6]
  % Activity (FLIPR): 100%
  EC50 (FLIPR): 3.6 nM
[7]
  % Activity (FLIPR): 100%
  EC50 (FLIPR): 11.6 nM
[1]
  % Activity (FLIPR): 100%
  EC50 (FLIPR): 1.2 nM
[2]
  % Activity (FLIPR): 100%
  EC50 (FLIPR): 2.6 nM
[3]
  % Activity (FLIPR): 97%
  EC50 (FLIPR): 7.2 nM
[4]
  % Activity (FLIPR): 100%
  EC50 (FLIPR): 2.9 nM
[5]
  % Activity (FLIPR): 100%
  EC50 (FLIPR): 3.8 nM

## Ac-C(Cholesteroyl)FRVDEEFQSPFASQSRGYFLFRPRN-NH2 [NMU10]
[6]
  % Activity (FLIPR): 76.8%
  EC50 (FLIPR): 173 nM
[7]
  % Activity (FLIPR): 69.2%
  EC50 (FLIPR): 1000 nM
[1]
  % Activity (FLIPR): 70.5%
  EC50 (FLIPR): 1000 nM
[2]
  % Activity (FLIPR): 31.3%
  EC50 (FLIPR): 1000 nM
[3]
  % Activity (FLIPR): 26.6%
  EC50 (FLIPR): 1000 nM
[4]
  % Activity (FLIPR): 97.4%
  EC50 (FLIPR): 41.5 nM
[5]
  % Activity (FLIPR): 80.1%
  EC50 (FLIPR): 201 nM
